Test results from article PMC9813358, “Insights into the GSDMB-mediated cellular lysis and its targeting by IpaH7.8” (Nature Communications, 2023).

B1: human GSDMD [human] / IpaH7.8 protein (residues 23–565) [Shigella flexneri] (parent)
chain 1: MGSAFERVVRRVVQELDHGGEFIPVTSLQSSTGFQPYCLVVRKPSSSWFWKPRYKCVNLSIKDILEPDAAEPDVQRGRSFHFYDAMDGQIQGSVELAAPGQAKIAGGAAVSDSSSTSMNVYSLSVDPNTWQTLLHERHLRQPEHKVLQQLRSRGDNVYVVTEVLQTQKEVEVTRTHKREGSGRFSLPGATCLQGEGQGHLSQKKTVTIPSGSTLAFRVAQLVIDSDLDVLLFPDKKQRTFQPPATGHKRSTSEGAWPQLPSGLSMMRCLHNFLTDGVPAEGAFTEDFQGLRAEVETISKELELLDRELCQLLLEGLEGVLRDQLALRALEEALEQGQSLGPVEPLDGPAGAVLECLVLSSGMLVPELAIPVVYLLGALTMLSETQHKLLAEALESQTLLGPLELVGSLLEQSAPWQERSTMSLPPGLLGNSWGEGAPAWVLLDECGLELGEDTPHVCWEPQAQGRMCALYASLALLSGLSQEPH
chain 2: SNEHYLRILTEWEKNSSPGEERGIAFNRLSQCFQNQEAVLNLSDLNLTSLPELPKHISALIVENNKLTSLPKLPAFLKELNADNNRLSVIPELPESLTTLSVRSNQLENLPVLPNHLTSLFVENNRLYNLPALPEKLKFLHVYYNRLTTLPDLPDKLEILCAQRNNLVTFPQFSDRNNIRQKEYYFHFNQITTLPESFSQLDSSYRINISGNPLSTRVLQSLQRLTSSPDYHGPQIYFSMSDGQQNTLHRPLADAVTAWFPENKQSDVSQIWHAFEHEEHANTFSAFLDRLSDTVSARNTSGFREQVAAWLEKLSASAELRQQSFAVAADATESCEDRVALTWNNLRKTLLVHQASEGLFDNDTGALLSLGREMFRLEILEDIARDKVRTLHFVDEIEVYLAFQTMLAEKLQLSTAVKEMRFYGVSGVTANDLRTAEAMVRSREENEFTDWFSLWGPWHAVLKRTEADRWAQAEEQKYEMLENEYSQRVADRLKASGLSGDADAEREAGAQVMRETEQQIYRQLTDEVLALRLSENGSRLHHS

Variants of: B1
Experiment: ITC
Details: with IpaH7.8 protein (residues 23–565) [Shigella flexneri]

Row | Variant | Kd
1 | chain 1 S124R | 0.23 µM
